In experiment [1] the target is MBP-SYCP1αNcore (UniProt Q15431). The experiment is described as follows: SEC-MALS. In general terms: SEC sorts molecules by how far they enter the pores of the column.
Experiment [2] has as its target SYCP1αNcore (UniProt Q15431). The experiment is described as follows: SEC-MALS.
Experiment [3] has as its target SYCP1αNcore (UniProt Q15431). The experiment is described as follows: ITC. On the technique in general: Isothermal titration calorimetry measures the heat released or taken up as one component is titrated into another.
Experiment [4] deals with SYCP1αN (UniProt Q15431). The experiment is described as follows: SEC-MALS.
Sequence of SYCP1αN (Q15431 101-362): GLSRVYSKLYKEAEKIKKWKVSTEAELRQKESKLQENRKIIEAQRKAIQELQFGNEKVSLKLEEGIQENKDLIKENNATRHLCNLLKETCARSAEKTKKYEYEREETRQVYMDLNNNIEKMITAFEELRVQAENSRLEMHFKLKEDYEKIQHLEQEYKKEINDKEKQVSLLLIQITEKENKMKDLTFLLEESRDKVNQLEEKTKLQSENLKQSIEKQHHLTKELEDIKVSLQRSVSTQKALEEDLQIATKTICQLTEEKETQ

For orientation: Kd means the free concentration of one partner at which half of the binding sites on the other are occupied at equilibrium, for simple one-to-one binding. A low value points to a tighter complex.

“And” between values parts separate entries of the source, which are not always exact repeats. Equal values may be shown once.

Sequence of SYCP1αNcore (Q15431 206-362): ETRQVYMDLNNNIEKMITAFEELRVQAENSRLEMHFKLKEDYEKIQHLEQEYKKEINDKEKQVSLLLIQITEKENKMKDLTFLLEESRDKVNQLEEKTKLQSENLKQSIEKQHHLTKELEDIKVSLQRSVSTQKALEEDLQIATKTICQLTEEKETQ
Sequence of MBP-SYCP1αNcore (Q15431 206-362): as above

As to “MBP-SYCE3 (from UniProt A1L190 11-81) (natural protein)”, the stoichiometry N (SYCP1 chains per SYCE3 chain) in experiment [1] and in experiment [2] was 2 throughout.
For the substance “SYCE3 P53Q (from UniProt A1L190 11-81) (natural protein)”, the stoichiometry N (SYCP1 chains per SYCE3 chain) in experiment [2] worked out at 2.
As for “SYCE3 W41E Y44E (from UniProt A1L190 11-81) (natural protein)”, in experiment [3], the KD, single replicate was 16 nM and 10 nM and 22 nM; the Kd was determined as 16 nM. For the same substance, in experiment [4], the stoichiometry N (SYCP1 chains per SYCE3 chain) was 2. The substance further had a stoichiometry N (SYCP1 chains per SYCE3 chain) in experiment [2] of 2.

The values above are taken from paper doi:10.1101/2022.03.06.483192.
